Measured values as given in patent US20260234276A1.

Target: human CCR8 (human) (UniProt P51685)
Assay: flow cytometry, hCCR8 transfected CHOK1 cells

% positive cells: 42.5%
MFI fold change to isotype ctrl: 2.76 fold
B1: 3-27 (antibody, V domains shown)
VH: EVKLVESGGGLVKSGGSLKLSCAASGFTFSSYAMSWVRQTPEKRLEWVASINSGGSIYYPDSVKGRFTISRDNARNILYLQMSSLRSEDTAMYYCARGFGAYWGQGTLVTVSA
VL: DIQMTQSPSSLSASLGERVTLTCRASQDIGSSLHWLQQEPDGTIKRLIYATSSLDSGVPKRFSGSRSGSDYSLTISSLESEDFVDYYCLQYATSPTFGGGTKLEIK
